T1: 6×His-tagged NmeCas9 (Neisseria meningitidis Cas9) (Neisseria meningitidis, UniProt C9X1G5 1-1082)
T1 sequence: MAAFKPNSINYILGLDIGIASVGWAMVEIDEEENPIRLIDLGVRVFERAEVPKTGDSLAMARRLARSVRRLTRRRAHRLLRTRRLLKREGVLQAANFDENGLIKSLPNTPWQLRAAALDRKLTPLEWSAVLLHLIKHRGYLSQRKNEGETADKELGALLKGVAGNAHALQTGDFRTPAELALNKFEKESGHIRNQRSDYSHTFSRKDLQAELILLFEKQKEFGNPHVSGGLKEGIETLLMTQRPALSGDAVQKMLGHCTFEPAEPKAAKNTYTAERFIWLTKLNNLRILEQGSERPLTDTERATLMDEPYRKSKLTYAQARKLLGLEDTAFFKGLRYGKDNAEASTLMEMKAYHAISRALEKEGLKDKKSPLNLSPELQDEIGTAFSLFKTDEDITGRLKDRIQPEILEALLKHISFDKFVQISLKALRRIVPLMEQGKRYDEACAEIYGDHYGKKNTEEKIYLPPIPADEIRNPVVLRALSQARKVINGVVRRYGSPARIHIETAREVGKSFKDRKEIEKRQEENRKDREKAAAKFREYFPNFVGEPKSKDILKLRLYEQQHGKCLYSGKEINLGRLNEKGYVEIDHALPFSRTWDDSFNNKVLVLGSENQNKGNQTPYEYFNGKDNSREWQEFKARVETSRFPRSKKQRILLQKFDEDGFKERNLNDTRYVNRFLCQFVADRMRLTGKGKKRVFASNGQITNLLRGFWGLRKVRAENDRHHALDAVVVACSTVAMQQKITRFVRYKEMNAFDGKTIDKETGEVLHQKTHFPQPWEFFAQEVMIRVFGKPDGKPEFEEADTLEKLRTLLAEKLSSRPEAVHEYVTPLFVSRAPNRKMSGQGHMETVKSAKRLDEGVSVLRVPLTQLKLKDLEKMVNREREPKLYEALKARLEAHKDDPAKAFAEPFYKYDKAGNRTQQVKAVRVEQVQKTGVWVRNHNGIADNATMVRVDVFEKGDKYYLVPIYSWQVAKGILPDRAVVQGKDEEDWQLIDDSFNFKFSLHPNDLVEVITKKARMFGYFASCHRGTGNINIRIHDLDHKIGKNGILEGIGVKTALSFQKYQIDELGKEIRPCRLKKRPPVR

T2: 6×His-MBP-tagged AnaCas9 (Cas9 from Actinomyces naeslundii) (Actinomyces naeslundii, UniProt J3F2B0 1-1101)
T2 construct: not shown: 6×His-MBP tag
T2 sequence: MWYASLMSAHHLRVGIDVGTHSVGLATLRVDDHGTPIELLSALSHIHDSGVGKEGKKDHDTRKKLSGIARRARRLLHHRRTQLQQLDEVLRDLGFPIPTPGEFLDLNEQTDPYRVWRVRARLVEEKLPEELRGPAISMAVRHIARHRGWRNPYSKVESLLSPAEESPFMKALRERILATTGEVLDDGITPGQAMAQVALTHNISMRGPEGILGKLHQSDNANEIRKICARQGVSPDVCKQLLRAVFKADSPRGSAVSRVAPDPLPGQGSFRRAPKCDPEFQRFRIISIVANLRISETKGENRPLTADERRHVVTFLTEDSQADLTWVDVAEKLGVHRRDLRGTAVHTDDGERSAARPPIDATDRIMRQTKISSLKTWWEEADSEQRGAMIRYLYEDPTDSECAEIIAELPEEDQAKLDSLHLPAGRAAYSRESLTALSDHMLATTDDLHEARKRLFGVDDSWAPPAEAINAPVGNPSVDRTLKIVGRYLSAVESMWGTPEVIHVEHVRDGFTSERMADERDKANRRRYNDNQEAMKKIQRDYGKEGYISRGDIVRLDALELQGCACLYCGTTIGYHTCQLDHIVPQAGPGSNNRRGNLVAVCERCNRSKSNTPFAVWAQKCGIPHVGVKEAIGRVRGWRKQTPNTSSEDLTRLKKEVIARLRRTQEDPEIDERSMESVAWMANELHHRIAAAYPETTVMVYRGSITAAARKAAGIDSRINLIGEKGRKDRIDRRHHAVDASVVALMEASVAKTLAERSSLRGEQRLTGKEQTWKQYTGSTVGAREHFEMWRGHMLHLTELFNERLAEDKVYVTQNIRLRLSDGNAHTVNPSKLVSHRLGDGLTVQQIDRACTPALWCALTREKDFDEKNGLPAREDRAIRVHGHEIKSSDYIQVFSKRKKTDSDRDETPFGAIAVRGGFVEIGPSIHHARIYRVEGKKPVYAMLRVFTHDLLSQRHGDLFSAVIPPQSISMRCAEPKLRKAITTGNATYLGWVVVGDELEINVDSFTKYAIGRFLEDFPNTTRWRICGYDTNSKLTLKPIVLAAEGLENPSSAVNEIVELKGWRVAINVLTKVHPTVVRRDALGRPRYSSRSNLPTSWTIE

B1: AcrIIC1Nme (Neisseria meningitidis Acr #1) (other)
chain: MANKTYKIGKNAGYDGCGLCLAAISENEAIKVKYLRDICPDYDGDDKAEDWLRWGTDSRVKAAALEMEQYAYTSVGMASCWEFVEL
notes: also called Acr1Nm
B2: FLAG-AcrIIC3Nme (AcrIIC3Nme with an N-terminal FLAG tag) (other)
chain: DYKDDDDKMAFKRAIIFTSFNGFEKVSRTEKRRLAKIINARVSIIDEYLRAKDTNASLDGQYRAFLFNDESPAMTEFLAKLKAFAESCTGISIDAWEIEESEYVRLPVERRDFLAAANGKEIFKI
notes: also called 6xHis-TEV-FLAG-AcrIIC3Nme (before TEV cleavage)
B3: AcrE2 (type I-E anti-CRISPR from Pseudomonas phage JBD88a) (other)
chain: MANTYLIDPRKNNDNSGERFTVDAVDITAAAKSAAQQILGEEFEGLVYRETGESNGSGMFQAYHHLHGTNRTETTVGYPFHVMEL
notes: also called Acr88a-32; Acr88-32

Tests used:
[1] = target: T1, 6×His-tagged NmeCas9 (Neisseria …); assay: cell-based or functional assay
[2] = target: T2, 6×His-MBP-tagged AnaCas9 (Cas9 from …); assay: nickel affinity pulldown with tagged AnaCas9, SDS-PAGE/Coomassie
[3] = target: T1, 6×His-tagged NmeCas9 (Neisseria …); assay: nickel affinity pulldown with 6×His-NmeCas9:sgRNA, SDS-PAGE/Coomassie

Binder | inhibition of in vitro DNA cleavage by NmeCas9, anti-CRISPR at 1:1 molar ratio [1] [%] | binding result [2] | binding result [3]
B1 | ~50 | no binding | 
B2 | ~50 | no binding | 
B3 |  |  | no binding

From US20230167426A1 (UNIVERSITY OF MASSACHUSETTS, published 2023)
